Assay results as given in patent US20120202218A1 (MODPRO, published 2012).

Key:
[1] = target: the molecule itself; test: Zn2+-induced gold nanoparticle aggregation (UV-vis, TEM)
[2] = target: Human Carbonic Anhydrase II (human, UniProt P00918 2-260); test: Zn2+-induced gold nanoparticle aggregation assay, particles with 0% KE2C-C6 (JR2EC only)

B1: JR2EC (peptide)
peptide: H-NAADLEKAIEALEKHLEAKGPCDAAQLEKQLEQAFEAFERAG-OH
modifications: also: Cys22 thiol bound to gold nanoparticle surface
notes: Synthetic Glu-rich 42-residue helix-loop-helix peptide; It dimerizes and folds into a four-helix bundle at pH<6, or at pH 7 with Zn2+; Immobilized on gold nanoparticles; also called aggregating polypeptide
Does B1 bind [1]?
Result: binds

Does B1 bind [2]?
Result: no binding (tested: 70 nM)
